In patent US20210299283A1 (SANFORD BURNHAM PREBYS MEDICAL DISCOVERY INSTITUTE, published 2021):
Primed or numbered codes have the meaning given here. Where no end group is shown, it is not given here. [ ]: non-standard residue; d: D form. Ahx = NCCCCCC(=O)O; FAM″ = fluorescein

T1: CTGF, endogenous human (U251 astrocytoma cell lysate; human AD brain sections) (human, UniProt P29279 27-349, limits assumed)
T1 construct: Native protein in a cell lysate, on cells or in tissue sections; Identified by LC-MS/MS against the Uniprot database; also called CCN2; connective tissue growth factor
T1 sequence (looked up): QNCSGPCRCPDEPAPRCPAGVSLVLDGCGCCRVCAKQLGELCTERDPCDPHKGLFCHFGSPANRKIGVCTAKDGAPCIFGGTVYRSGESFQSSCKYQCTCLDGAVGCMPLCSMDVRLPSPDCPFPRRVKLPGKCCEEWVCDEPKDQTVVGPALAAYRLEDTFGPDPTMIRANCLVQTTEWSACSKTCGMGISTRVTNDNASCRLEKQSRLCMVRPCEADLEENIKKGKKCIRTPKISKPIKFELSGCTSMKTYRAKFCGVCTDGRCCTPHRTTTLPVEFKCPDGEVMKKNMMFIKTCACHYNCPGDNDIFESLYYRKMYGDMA

B1: DAG-conjugated silver nanoparticles (FAM-cys-x-DAG-NH2 on AgNPs) (peptide)
peptide: {FAM″}-C[Ahx]CDAGRKQKC-NH2
modifications: also: conjugated via the added Cys thiol to maleimide-PEG on silver nanoparticles
notes: Many copies of the peptide on silver nanoparticles of about 35 nm; also called DAG-AgNP; DAG-AgNPs
B2: DAG peptide (CDAGRKQKC), labelled synthetic cyclic peptide (peptide)
peptide: CDAGRKQKC-NH2
modifications: not fully specified (bridges); also: fluorescein (FAM) or biotin tag at the N-terminus, described as a cyclic peptide, ring not given here
notes: also called FAM-DAG; FAM-labeled DAG

Tests used:
[1] = target: T1, CTGF, endogenous human (U251 …); assay: DAG-AgNP binding to cultured U251 cells, fluorescence microscopy
Experimental: FIG. 7 is a graphical representation showing quantity of DAG-coated silver nanoparticles (DAG-AgNPs) binding to human astrocytoma U251 cells. Cultured U251 cells were incubated with DAG-AgNPs alone, in the presence of free non-labeled control peptide, or an excess of free, non-labeled DAG (both at 200 μM), for 1 hour at 37° C. Nanoparticle binding was quantified from fluorescence micrographs using ImageJ™ software. Scale bar, 20 μm.
Cell binding experiments on U251 cells and hiPSCs were with done using peptide conjugated AgNP. U251 cells were cultured in a 96-well plate. The cells were blocked with 200 μl of 10% FCS in HBSS (Hanks' Balanced Salt Solution from Gibco) for 30 min at 37° C. Following that, DAG-AgNPs (0.5 nM concentration diluted in HBSS) alone or in the presence of free non-labeled peptide (200 μM) were incubated on the cells for 1 hour at 37° C. After washing the unbound AgNP with HBSS three times, the plates were imaged with fluorescent microscopy by looking at intrinsic emission from the FAM tag on the peptide. hiPSCs were cultured in 48 well plate and similar protocol as described above was followed, with the exception that AgNP concentration for incubation was kept at 0.15 nM. Nanoparticle binding was quantified from fluorescence micrographs using ImageJ™ software.

[2] = target: T1, CTGF, endogenous human (U251 …); assay: affinity chromatography of U251 cell lysate on biotin-DAG magnetic particles, control peptide wash, elution with 1 mM free DAG, LC-MS/MS
Experimental: For identifying DAG binding proteins, the human glioblastoma astrocytoma cell line U251 was lysed in PBS containing 200 mM n-octyl-beta-D-glucopyranoside and protease inhibitor cocktail (Roche) as described previously with slight modifications. The clarified lysates were loaded on to Sera-Mag magnetic particles (GE Healthcare Lifesciences, USA) coated with biotin-DAG, and incubated overnight with rotation at 4° C. The magnetic beads were washed with wash buffer followed by additional washing with 0.5 mM control peptide ([…]; SEQ ID NO: 103) to remove non-specifically bound proteins. The bound proteins were eluted with 1 mM free DAG peptide. The eluted factions were pooled, their protein concentration determined by using bicinchoninic acid (BCA) protein assay (Pierce) and the samples were digested using the Filter-aided Sample Preparation (FASP) method. Finally, the digested samples were dried, desalted and subjected to LC-MS/MS analysis at the Sanford Burnham Prebys Medical Discovery Institute's Proteomics Core facility. All mass spectra were analyzed with MaxQuant™ software version 1.5.0.25. The MS/MS spectra were searched against the Uniprot™ protein sequence database (version July 2014).

Row | Binder | binding result [1] | binding result [2]
1 | B1 | binds | –
2 | B2 | – | binds
